The test system of data set [1] is SepF. Nature of the data set: Western blots of whole-cell extracts (SepF depletion / expression). The class given is cell-based, C. glutamicum. As to conditions: Pino-sepF strain, 1% myo-inositol. The method, then: 24 homogenizer. Crude extracts (120 μg) were analyzed by SDS-PAGE, electro-transferred onto a 0.2 μm Nitrocellulose membrane and blocked with 5% (w/v) skimmed milk. Membranes were incubated with an anti-SepF antibody (produced by Covalab, Supplementary Fig. 25a), an anti-FtsZ antibody (produced by Proteogenix, Supplementary Fig. 25b) or an anti-mNeonGreen antibody (purchased from Chromotek) for 1 h at room temperature.
(In general: Immunoblotting shows a protein as a band on a membrane.)

Data set [2] concerns Pino-sepF strain. Nature of the data set: Growth curves / complementation of the Pino-sepF strain.
Description: Positive colonies were grown in BHI media supplemented with 25 µg/ml kanamycin overnight at 30 °C and 120 rpm shaking.
All strains were plated in CGXII media plates with 4% (w/v) sucrose as a carbon source for 2 days at 30 °C and then single colonies were inoculated in 10 ml of CGXII media 4% (w/v) sucrose overnight at 30 °C and 120 rpm shaking. The next day, 20 ml of CGXII media supplemented with the appropriate repressor or inducer were inoculated with the overnight cultures to a starting OD600 of 1. OD600 measurements were taken every 1.5 h. Each growth curve represents the average of three different growth curves originally from three different single colonies. […] When required, CGXII media 4% (w/v) sucrose was supplemented with either 1% (w/v) myo-inositol, 50 ng/ml tetracycline or 1% (w/v) gluconate and 25 μg/ml kanamycin.
Data set [3] relates to C. glutamicum ATCC13032 whole-cell extracts. The data set is described as follows: SepF and FtsZ quantification by Western blot. Format: cell-based, Corynebacterium glutamicum. Particulars: 60 ugr loaded.
Another data set deals with T1, His6-Sumo tagged SepFΔML (Corynebacterium glutamicum, UniProt Q8NNN6 63-152).
T1 construct: SepF (cg2363), Corynebacterium glutamicum, amino acids 63 to 152; Covalently immobilised on an NTA sensor chip; also called immobilized SepF; source: E. coli BL21 (DE3), purified (Ni-NTA, dialysed directly without SUMO protease for SPR); not shown: His6, N-terminal, kept; SUMO, N-terminal, kept
T1 sequence (looked up): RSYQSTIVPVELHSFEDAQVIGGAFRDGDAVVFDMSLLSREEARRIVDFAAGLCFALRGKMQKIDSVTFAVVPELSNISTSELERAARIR
Nature of the data set: SPR; Biacore T200, 25 °C, 25 mM HEPES pH 8, 150 mM KCl, 0.1 mM EDTA; His6-Sumo SepF variants covalently immobilised on NTA chips (3000-4000 RU); FtsZCTD 1.56 to 400 µM injected; steady-state fit; apparent Kd. Particulars: both partners purified. (In general: In SPR one partner is held on a chip, and binding of the other changes the refractive index at the surface.)

The target in data set [4] is T2, His6-Sumo tagged SepF_(ΔML,F131A) (Corynebacterium glutamicum, UniProt Q8NNN6 63-152, F131A).
T2 construct: SepF (cg2363), Corynebacterium glutamicum, amino acids 63 to 152 with F131A; also called SepF_(F131A); source: E. coli BL21 (DE3), purified (Ni-NTA, dialysed directly without SUMO protease for SPR); not shown: His6, N-terminal, kept; SUMO, N-terminal, kept
T2 sequence (looked up): T1 sequence (looked up) with F69A
Described as above. Particulars: both partners purified.

Data set [5] deals with the molecule itself. The data set is described as follows: turbidity + dynamic light scattering; SepF or SepF mutant with SUVs (POPC:POPG 8:2), 50 µM each, 100 mM KCl, 10 mM MgCl2, 25 mM Pipes pH 6.9, 25 °C.
Data set [6] has as its system SepF. The data set is described as follows: SepF polymerization (turbidity) assay in the presence of SUVs. Particulars: SepF (or mutant) plus SUVs 50 µM each, pH 6.9, 25 °C. Format: biochemical, C. glutamicum. As for the experimental part: When used, FtsZCTD was added at a final concentration of 100 μM.
Reverse phase evaporation was used to prepare small unilamellar vesicles (SUVs). A 10 mM lipid solution made of an 8:2 mixture of 1-palmitoyl-2-oleoyl phosphatidylcholine (POPC) and 1-palmitoyl-2-oleoylglycero-3-phosphoglycerol (POPG) (Avanti Polar Lipids) was prepared as described. Chloroform was removed by evaporation under vacuum conditions and the dried phospholipid film was resuspended in a mixture of diethyl ether and buffer (25 mM Hepes pH 7.4, 10 mM MgCl2 and 150 mM KCl). Diethyl ether was eliminated by reverse phase evaporation and by slowly decreasing the pressure to the vacuum. SUVs were obtained by sonication during 30 min at 4 °C. The diameter and charge of SUV were determined by measuring dynamic light scattering (DLS) and electrophoretic mobility profiles on a Zetasizer Nano instrument (Malvern Instruments).

A short description of the next data set: Dynamic light scattering. Format: physicochemical. Particulars: protein alone. The method, then:
Polydispersity of the samples was measured using Dyna-pro Plate Reader (Wyatt technology) equipped with an 830 nm laser and a temperature control module. The Dynamics software (version 7.9) was used to schedule data acquisition and data analysis. For each well, 20 measurements of 10 s were averaged and this operation was repeated 20 times for each condition at 25 °C. For samples containing FtsZCTD, the peptide was used at a final concentration of 100 µM. All the experiments were carried out as minimum three biological and technical replicates.

Data set [7] can be described thus: Negative stain EM of SUVs with SepF. Format: biochemical. As to conditions: SepFΔα3 + SUVs, upon addition of FtsZCTD.
Data set [8] concerns Pino-sepF strain. Nature of the data set: Cell length distribution (violin plots), Pino-sepF strains. Format: cell-based, Corynebacterium glutamicum.
Description: For imaging, cultures of C. glutamicum were grown in BHI or minimal medium CGXII during the day, and washed and inoculated into CGXII media for overnight growth. The following day cultures were diluted to OD600 = 1 and grown to the required OD (early exponential phase) for imaging. For HADA labeling, cultures were incubated with 0.5 mM HADA for 20 min at 30 °C in the dark. Two percent agarose pads were prepared with the corresponding growth medium and cells were visualized using a Zeiss Axio Observer Z1 microscope fitted with an Orca Flash 4 V2 sCMOS camera (Hamamatsu), and a Pln-Apo 63×/1.4 oil Ph3 objective. Images were collected using Zen Blue 2.6 (Zeiss) and analyzed using the software Fiji[70] and the plugin MicrobeJ[71] to generate violin plots and fluorescent intensity heatmaps. […] The experiments were performed as biological triplicates.
In another data set the test system is WT C. glutamicum. The data set is described as follows: Number of ring-like structures per cell, overexpression in WT. Format: cell-based, Corynebacterium glutamicum.
Data set [9] deals with the molecule itself. Nature of the data set: crystal structure; SepFΔML 10 mg/ml with FtsZCTD 5.8 mg/ml (1:5 molar ratio), 100 mM sodium acetate pH 4.6, 30% PEG 4000, 18 °C; 1.6 Å.
Data set [10] deals with the molecule itself. The data set is described as follows: crystal structure; SepF_(ΔML,Δα3) 17 mg/ml alone, 0.1 M MES pH 6, 20% PEG MME 2000, 0.2 M NaCl, 18 °C.
Data set [11] deals with the molecule itself. The data set is described as follows: SEC + AUC; sedimentation velocity, 42,000 rpm, 20 °C, 1-2 mg/ml, 50 mM Hepes pH 7.4, 150 mM KCl, 10 mM MgCl2; size exclusion chromatography. In general terms: SEC sorts molecules by how far they enter the pores of the column.
Data set [12] is described as follows: Negative stain EM of SepF rings. Format: physicochemical. As to conditions: 50 μM, 50 mM HEPES pH 7.4, 300 mM KCl, 10 mM MgCl2. As for the experimental part:
For all samples, 400 mesh carbon coated grids (Electron Microscopy Sciences; CF 400-Cu) were glow-discharged on an ELMO system for 30 sec at 2 mA. 5 µl samples were applied onto the grids and incubated for 30 s, the sample was blotted, washed in 3 drops of water and then stained with 2% (weight/vol) uranyl acetate. Images were recorded on a Gatan UltraScan4000 charged coupled device (CCD) camera (Gatan) on a Tecnai T12 BioTWINLaB6 electron microscope operating at a voltage of 120 kV.

Where a chain is given by its changes, count along the chain named.

For the molecule `O[C@H]1[C@H](O)[C@@H](O)[C@H](O)[C@@H](O)[C@H]1O` [myo-inositol, reference compound], in the data set on SepF [1], the SepF protein level entry is “rapid depletion of SepF”. Besides, in the data set on Pino-sepF strain [2] (1% myo-inositol, after the first 6 h), the “growth of Pino-sepF” value is given as “growth stopped for the depleted strain”.
Take FtsZ: C. glutamicum FtsZ (cg2366): the “band volume in whole-cell extract” value was 14.8379 in data set [3] (ON S (over-night, sucrose)); 18.4228 in data set [3] (ON S+G (over-night, sucrose + gluconate)); 20.1825 in data set [3] (T6 S (6 h, sucrose)); 23.8045 in [3] (T6 S+G (6 h, sucrose + gluconate)).

B1: FtsZCTD peptide (conserved C-terminal domain of C. glutamicum FtsZ, 10 residues) (peptide)
peptide: DDLDVPSFLQ
notes: C-terminal 10 residues of FtsZ (cg2366), Corynebacterium glutamicum; the printed residues D436, P438 and F440 place the peptide at 433-442; also called FtsZ C-terminal domain peptide; source: synthetic peptide, bought: Genosphere
For the molecule B1, the Kd in the data set with His6-Sumo tagged SepFΔML is 15 µM; in [4], 340 µM.

B2: SepFΔα3 (domain or fragment, Corynebacterium glutamicum, UniProt Q8NNN6 1-137, looked up)
chain: MSMLKKTKEFFGLAPYEAEHEDAYYADEPRYEGTAAYAPEYRERDYGYAPEAPAPVAPSPAPRSYQSTIVPVELHSFEDAQVIGGAFRDGDAVVFDMSLLSREEARRIVDFAAGLCFALRGKMQKIDSVTFAVVPEL
notes: SepF (cg2363), Corynebacterium glutamicum, amino acids 1 to 137 (without the C-terminal helix α3); source: E. coli BL21 (DE3), purified (Ni-NTA, SUMO protease, SEC); not shown: His6, N-terminal, cleaved; SUMO, N-terminal, cleaved
Regarding B2, the binding result in data set [5] was “binds”.

B3: SepFΔα3: SepF amino acids 1 to 137, lacking the regulatory C-terminal helix (protein)
chain: B2 chain
modifications: left off: His6, N-terminal, cleaved | SUMO, N-terminal, cleaved
For B3, the “polymerization with SUVs (turbidity)” value with SepF [6] was “polymerization and vesicle tubulation were also seen but could only be partially reversed”. Further, in the data set “Dynamic light scattering”, the “dispersity by DLS” value is recorded as “monodisperse”. Moreover, the “reversal by FtsZCTD of particle formation and vesicle tubulation” value in [7] was “only partially reversed”.

B4: full-length C. glutamicum SepF (recombinant) (natural protein, Corynebacterium glutamicum, UniProt Q8NNN6 1-152, looked up)
chain: MSMLKKTKEFFGLAPYEAEHEDAYYADEPRYEGTAAYAPEYRERDYGYAPEAPAPVAPSPAPRSYQSTIVPVELHSFEDAQVIGGAFRDGDAVVFDMSLLSREEARRIVDFAAGLCFALRGKMQKIDSVTFAVVPELSNISTSELERAARIR
notes: SepF (cg2363), Corynebacterium glutamicum, full length; source: E. coli BL21 (DE3), purified (Ni-NTA, SUMO protease, SEC); not shown: His6, N-terminal, cleaved; SUMO, N-terminal, cleaved
In the case of B4, the binding result in data set [5] is reported as “binds”.

B5: SepF-Scarlet: mScarlet-I fused on the C-terminal side of SepF (protein)
chain: B4 chain
modifications: left off: mScarlet-I, C-terminal, kept
Regarding B5, in the data set on Pino-sepF strain [8] (1% myo-inositol + 1% gluconate, t = 6, replicate 1, listed as PgntK_SepF_Scarlet), the mean cell length was 5.38. Moreover, the “cell elongation on complementation” value in the data set on Pino-sepF strain [8] (PgntK, compared with control cells) is recorded as “cells were more elongated than control cells”. Further, the “frequency of cells with n septa (ring-like structures)” value (shortened to “frequency of cells with n septa”) in the data set on WT C. glutamicum (n septa 0, replicate 1) came out at 0.369; with WT C. glutamicum (n septa 0, replicate 2), 0.283; in the data set on WT C. glutamicum (n septa 0, replicate 3) it was 0.282; in the data set on WT C. glutamicum (n septa 1, replicate 1), 0.513; in the data set with WT C. glutamicum (n septa 1, replicate 2) it was 0.547; in the data set with WT C. glutamicum (n septa 1, replicate 3) it was 0.565. In addition, the “frequency of cells with n septa” value with WT C. glutamicum (n septa 2, replicate 1) was found to be 0.104; with WT C. glutamicum (n septa 2, replicate 2), 0.153; in the data set with WT C. glutamicum (n septa 2, replicate 3), 0.127; in the data set on WT C. glutamicum (n septa 3, replicate 1) it was 0.014; with WT C. glutamicum (n septa 3, replicate 2), 0.017; in the data set on WT C. glutamicum (n septa 3, replicate 3) it was 0.025. Besides, the “frequency of cells with n septa” value in the data set on WT C. glutamicum (n septa 4, replicate 1) amounted to 0; with WT C. glutamicum (n septa 4, replicate 2), 0; in the data set on WT C. glutamicum (n septa 4, replicate 3), 0; in the data set with WT C. glutamicum (n septa 5, replicate 1), 0; in the data set on WT C. glutamicum (n septa 5, replicate 2), 0; in the data set on WT C. glutamicum (n septa 5, replicate 3), 0. Also, the “frequency of cells with n septa” value in the data set with WT C. glutamicum (n septa 6, replicate 1) is 0; in the data set with WT C. glutamicum (n septa 6, replicate 2), 0; in the data set with WT C. glutamicum (n septa 6, replicate 3) it was 0; in the data set on WT C. glutamicum (n septa 7, replicate 1), 0; in the data set on WT C. glutamicum (n septa 7, replicate 2) it was 0; with WT C. glutamicum (n septa 7, replicate 3), 0. Further, in the data set with WT C. glutamicum (overexpression in WT background), the “ring-like structures per cell” value is given as “mostly single rings at mid-cell”. The “complementation of SepF depletion (growth)” value in the data set with Pino-sepF strain [2] (SepF depletion with 1% myo-inositol, exogenous construct induced) is “complemented the SepF depletion strain for growth”.

B6: C. glutamicum SepF C-terminal core domain (SepFΔML), tag removed (domain or fragment, Corynebacterium glutamicum, UniProt Q8NNN6 63-152, looked up)
chain: T1 sequence (looked up)
notes: Gene codon optimised and synthesised for E. coli; homodimer in the crystal; also called globular core of SepF; source: E. coli BL21 (DE3), purified (Ni-NTA, SUMO protease, SEC); not shown: His6, N-terminal, cleaved; SUMO, N-terminal, cleaved
With B6, in data set [9], the binding result is reported as “binds”.

B7: SepF_(ΔML,Δα3) (domain or fragment, Corynebacterium glutamicum, UniProt Q8NNN6 63-137, looked up)
chain: RSYQSTIVPVELHSFEDAQVIGGAFRDGDAVVFDMSLLSREEARRIVDFAAGLCFALRGKMQKIDSVTFAVVPEL
notes: SepF (cg2363), Corynebacterium glutamicum, amino acids 63 to 137 (core domain without the C-terminal helix α3); Dimers associate into linear polymers in the crystals; source: E. coli BL21 (DE3), purified (Ni-NTA, SUMO protease, SEC); not shown: His6, N-terminal, cleaved; SUMO, N-terminal, cleaved
As for B7, the binding result in data set [10] is listed as “binds”.

B8: C. glutamicum SepF devoid of helix α3 (construct of the SEC and AUC experiments) (domain or fragment)
chain: B7 chain with R1M
Usually stoichiometry N stands for a count of units in the complex or per binding partner. On to B8, for which, in [11], the “stoichiometry N” value is 2.

B9: M. tuberculosis SepFΔML (domain or fragment)
chain: EDGHPLSKITTLRPKDYSEARTIGERFRDGSPVIMDLVSMDNADAKRLVDFAAGLAFALRGSFDKVATKVFLLSPADVDVSPEERRRIAETGFYAYQ
notes: also called MtbSepFΔML
Consider B9, for which the ring diameter in data set [12] is ~ 40 nm.

Values taken from PMC7118173 (Nature Communications, 2020).
